Reference: article PMC5069464

Key:
Conditions in all cases: glycan lost; control: wild type
[1] = cell-attached single-channel recording, tsA201
[2] = high-throughput patch (IonWorks Barracuda), peak current
[3] = puromycin chase, >250 kDa band at 48 hr
[4] = whole-cell tail currents, Boltzmann fit
[5] = whole-cell pre-pulse protocol, Boltzmann fit

hCaV3.3 α1 subunit: R1346H
other: single-channel conductance, other: conductance [1]: no change, 13.7 ± 0.6 vs 14.0 ± 0.8 | other: channel current, other: median peak current [2]: decreases, 0.56 vs 1.30 | degradation_or_half_life, other: fraction of pre-puromycin level [3]: no change, 0.50 ± 0.12 vs 0.36 ± 0.08 | other: voltage dependence of activation, other: V1/2-negative [4]: no change, −37.6 ± 0.99 vs −40.0 ± 0.98 | other: voltage dependence of inactivation, other: V1/2 [5]: no change, −69.4 ± 1.4 vs −67.1 ± 0.89
